Earlier results as cited in article PMC10532153, “Interactions of the N- and C-Terminal SH3 Domains of Drosophila Drk with the Proline-Rich Peptides from Sos and Dos” (International Journal of Molecular Sciences, 2023).

Target: T1, Drk-CSH3 (Drosophila melanogaster, UniProt Q08012)
T1 construct: its N- and C-terminal SH3 domains (Drk-NSH3 and Drk-CSH3, respectively); made in house
Conditions: previous paper on Drk-CSH3; read-out: Kd for Drk-CSH3, nine-residue (“shorter”) Dos peptides
Text: Table 1 The calculated dissociation constants (Kds) for Sos- and Dos-derived peptides.

T1 sequence (Q08012 152-211 limits assumed): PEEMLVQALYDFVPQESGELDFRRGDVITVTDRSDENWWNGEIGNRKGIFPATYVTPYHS

Sequence	Kd
PPVNRKLKP [shorter Dos-S1]	~1.4 mM
PSVDRKCKP [shorter Dos-S2]	~4.8 mM
